Reference: patent US20260103536A1

Biological target: CD38 on cells (Raji, Daudi, REH, CD38-transfected HEK293) (human) (UniProt P28907)
Experiment: flow cytometry on Raji cells; top asymptote fixed at about the maximum response of Darzalex

Q: Darzalex® (CD38 control) (antibody) was tested. Which Adjusted* EC50 did it give?
A: 1.27 nM
